# Legend:
# [1] = biological target: the molecule itself; test: non-reducing SDS-PAGE; purified recombinant TRAP1, DTT removed, 150 mM NaCl, 50 mM TRIS, pH 7.5, 37 °C, 100 μM H2O2 for 30 min (1 nM to 100 μM in Fig. 1B); disulfide-linked band above 170 kDa; Coomassie or stain-free
# [2] = biological target: the molecule itself; test: SEC; Superdex 200 HR 10/30, 20 mM TRIS, 150 mM NaCl, pH 7; recombinant TRAP1 incubated with 100 μM H2O2; additional peak beside the dimer; dimers to tetramer
protein,measurement,setting,value
"recombinant human TRAP1 C501S (natural protein, UniProt Q12931 60-704, looked up, Cloned in pET-26b(+); same construct as m1 with the mutation; source: E. coli BL21(DE3), purified (Ni-NTA)) STQTAEDKEEPLHSIISSTESVQGSTSKHEFQAETKKLLDIVARSLYSEKEVFIRELISNASDALEKLRHKLVSDGQALPEMEIHLQTNAEKGTITIQDTGIGMTQEELVSNLGTIARSGSKAFLDALQNQAEASSKIIGQFGVGFYSAFMVADRVEVYSRSAAPGSLGYQWLSDGSGVFEIAEASGVRTGTKIIIHLKSDCKEFSSEARVRDVVTKYSNFVSFPLYLNGRRMNTLQAIWMMDPKDVREWQHEEFYRYVAQAHDKPRYTLHYKTDAPLNIRSIFYVPDMKPSMFDVSRELGSSVALYSRKVLIQTKATDILPKWLRFIRGVVDSEDIPLNLSRELLQESALIRKLRDVLQQRLIKFFIDQSKKDAEKYAKFFEDYGLFMREGIVTATEQEVKEDIAKLLRYESSALPSGQLTSLSEYASRMRAGTRNIYYLSAPNRHLAEHSPYYEAMKKKDTEVLFCFEQFDELTLLHLREFDKKKLISVETDIVVDHYKEEKFEDRSPAAECLSEKETEELMAWMRNVLGSRVTNVKVTLRLDTHPAMVTVLEMGAARHFLRMQQLAKTQEERAQLLQPTLEINPRHALIKKLNQLRASEPGLAQLLVDQIYENAMIAAGLVDDPRAMVGRLNELLVKALERH",binding result,[1],binds
"recombinant human TRAP1 wild type, lacking the mitochondrial import sequence (natural protein, UniProt Q12931 60-704, looked up, Cloned in pET-26b(+); Dimer by gel filtration with DTT; an additional tetramer peak after H2O2; also called WT TRAP1; TRAP1 WT; source: E. coli BL21(DE3), purified (Ni-NTA)) STQTAEDKEEPLHSIISSTESVQGSTSKHEFQAETKKLLDIVARSLYSEKEVFIRELISNASDALEKLRHKLVSDGQALPEMEIHLQTNAEKGTITIQDTGIGMTQEELVSNLGTIARSGSKAFLDALQNQAEASSKIIGQFGVGFYSAFMVADRVEVYSRSAAPGSLGYQWLSDGSGVFEIAEASGVRTGTKIIIHLKSDCKEFSSEARVRDVVTKYSNFVSFPLYLNGRRMNTLQAIWMMDPKDVREWQHEEFYRYVAQAHDKPRYTLHYKTDAPLNIRSIFYVPDMKPSMFDVSRELGSSVALYSRKVLIQTKATDILPKWLRFIRGVVDSEDIPLNLSRELLQESALIRKLRDVLQQRLIKFFIDQSKKDAEKYAKFFEDYGLFMREGIVTATEQEVKEDIAKLLRYESSALPSGQLTSLSEYASRMRAGTRNIYYLCAPNRHLAEHSPYYEAMKKKDTEVLFCFEQFDELTLLHLREFDKKKLISVETDIVVDHYKEEKFEDRSPAAECLSEKETEELMAWMRNVLGSRVTNVKVTLRLDTHPAMVTVLEMGAARHFLRMQQLAKTQEERAQLLQPTLEINPRHALIKKLNQLRASEPGLAQLLVDQIYENAMIAAGLVDDPRAMVGRLNELLVKALERH",stoichiometry N,[2],4
"recombinant human TRAP1 C261S (natural protein, UniProt Q12931 60-704, looked up, Cloned in pET-26b(+); same construct as m1 with the mutation; source: E. coli BL21(DE3), purified (Ni-NTA)) STQTAEDKEEPLHSIISSTESVQGSTSKHEFQAETKKLLDIVARSLYSEKEVFIRELISNASDALEKLRHKLVSDGQALPEMEIHLQTNAEKGTITIQDTGIGMTQEELVSNLGTIARSGSKAFLDALQNQAEASSKIIGQFGVGFYSAFMVADRVEVYSRSAAPGSLGYQWLSDGSGVFEIAEASGVRTGTKIIIHLKSDSKEFSSEARVRDVVTKYSNFVSFPLYLNGRRMNTLQAIWMMDPKDVREWQHEEFYRYVAQAHDKPRYTLHYKTDAPLNIRSIFYVPDMKPSMFDVSRELGSSVALYSRKVLIQTKATDILPKWLRFIRGVVDSEDIPLNLSRELLQESALIRKLRDVLQQRLIKFFIDQSKKDAEKYAKFFEDYGLFMREGIVTATEQEVKEDIAKLLRYESSALPSGQLTSLSEYASRMRAGTRNIYYLCAPNRHLAEHSPYYEAMKKKDTEVLFCFEQFDELTLLHLREFDKKKLISVETDIVVDHYKEEKFEDRSPAAECLSEKETEELMAWMRNVLGSRVTNVKVTLRLDTHPAMVTVLEMGAARHFLRMQQLAKTQEERAQLLQPTLEINPRHALIKKLNQLRASEPGLAQLLVDQIYENAMIAAGLVDDPRAMVGRLNELLVKALERH",binding result,[1],binds
"recombinant human TRAP1 C501S/C527A double mutant (natural protein, UniProt Q12931 60-704, looked up, Cloned in pET-26b(+); same construct as m1 with the mutations; source: E. coli BL21(DE3), purified (Ni-NTA)) STQTAEDKEEPLHSIISSTESVQGSTSKHEFQAETKKLLDIVARSLYSEKEVFIRELISNASDALEKLRHKLVSDGQALPEMEIHLQTNAEKGTITIQDTGIGMTQEELVSNLGTIARSGSKAFLDALQNQAEASSKIIGQFGVGFYSAFMVADRVEVYSRSAAPGSLGYQWLSDGSGVFEIAEASGVRTGTKIIIHLKSDCKEFSSEARVRDVVTKYSNFVSFPLYLNGRRMNTLQAIWMMDPKDVREWQHEEFYRYVAQAHDKPRYTLHYKTDAPLNIRSIFYVPDMKPSMFDVSRELGSSVALYSRKVLIQTKATDILPKWLRFIRGVVDSEDIPLNLSRELLQESALIRKLRDVLQQRLIKFFIDQSKKDAEKYAKFFEDYGLFMREGIVTATEQEVKEDIAKLLRYESSALPSGQLTSLSEYASRMRAGTRNIYYLSAPNRHLAEHSPYYEAMKKKDTEVLFAFEQFDELTLLHLREFDKKKLISVETDIVVDHYKEEKFEDRSPAAECLSEKETEELMAWMRNVLGSRVTNVKVTLRLDTHPAMVTVLEMGAARHFLRMQQLAKTQEERAQLLQPTLEINPRHALIKKLNQLRASEPGLAQLLVDQIYENAMIAAGLVDDPRAMVGRLNELLVKALERH",binding result,[1],binds
"recombinant human TRAP1 C573R (natural protein, UniProt Q12931 60-704, looked up, Cloned in pET-26b(+); same construct as m1 with the mutation; source: E. coli BL21(DE3), purified (Ni-NTA)) STQTAEDKEEPLHSIISSTESVQGSTSKHEFQAETKKLLDIVARSLYSEKEVFIRELISNASDALEKLRHKLVSDGQALPEMEIHLQTNAEKGTITIQDTGIGMTQEELVSNLGTIARSGSKAFLDALQNQAEASSKIIGQFGVGFYSAFMVADRVEVYSRSAAPGSLGYQWLSDGSGVFEIAEASGVRTGTKIIIHLKSDCKEFSSEARVRDVVTKYSNFVSFPLYLNGRRMNTLQAIWMMDPKDVREWQHEEFYRYVAQAHDKPRYTLHYKTDAPLNIRSIFYVPDMKPSMFDVSRELGSSVALYSRKVLIQTKATDILPKWLRFIRGVVDSEDIPLNLSRELLQESALIRKLRDVLQQRLIKFFIDQSKKDAEKYAKFFEDYGLFMREGIVTATEQEVKEDIAKLLRYESSALPSGQLTSLSEYASRMRAGTRNIYYLCAPNRHLAEHSPYYEAMKKKDTEVLFCFEQFDELTLLHLREFDKKKLISVETDIVVDHYKEEKFEDRSPAAERLSEKETEELMAWMRNVLGSRVTNVKVTLRLDTHPAMVTVLEMGAARHFLRMQQLAKTQEERAQLLQPTLEINPRHALIKKLNQLRASEPGLAQLLVDQIYENAMIAAGLVDDPRAMVGRLNELLVKALERH",binding result,[1],binds
"recombinant human TRAP1 C527A (natural protein, UniProt Q12931 60-704, looked up, Cloned in pET-26b(+); same construct as m1 with the mutation; source: E. coli BL21(DE3), purified (Ni-NTA)) STQTAEDKEEPLHSIISSTESVQGSTSKHEFQAETKKLLDIVARSLYSEKEVFIRELISNASDALEKLRHKLVSDGQALPEMEIHLQTNAEKGTITIQDTGIGMTQEELVSNLGTIARSGSKAFLDALQNQAEASSKIIGQFGVGFYSAFMVADRVEVYSRSAAPGSLGYQWLSDGSGVFEIAEASGVRTGTKIIIHLKSDCKEFSSEARVRDVVTKYSNFVSFPLYLNGRRMNTLQAIWMMDPKDVREWQHEEFYRYVAQAHDKPRYTLHYKTDAPLNIRSIFYVPDMKPSMFDVSRELGSSVALYSRKVLIQTKATDILPKWLRFIRGVVDSEDIPLNLSRELLQESALIRKLRDVLQQRLIKFFIDQSKKDAEKYAKFFEDYGLFMREGIVTATEQEVKEDIAKLLRYESSALPSGQLTSLSEYASRMRAGTRNIYYLCAPNRHLAEHSPYYEAMKKKDTEVLFAFEQFDELTLLHLREFDKKKLISVETDIVVDHYKEEKFEDRSPAAECLSEKETEELMAWMRNVLGSRVTNVKVTLRLDTHPAMVTVLEMGAARHFLRMQQLAKTQEERAQLLQPTLEINPRHALIKKLNQLRASEPGLAQLLVDQIYENAMIAAGLVDDPRAMVGRLNELLVKALERH",binding result,[1],binds

# — article PMC12152899, “Disulfide-mediated tetramerization of TRAP1 fosters its antioxidant and pro-neoplastic activities” (Redox Biology, 2025)
